# Reference: publication PMC12474247
# Where “and” joins values, the source holds several entries; their conditions need not be identical. Identical values can stand only once.
# Target: small hepatitis delta antigen with C-terminal His6-tag (SHDAg-His6), native preparation (hepatitis D virus genotype 1)
# Assay: SEC
substance,measurement,value
"small hepatitis delta antigen with C-terminal His6-tag (SHDAg-His6), native preparation (natural protein)",stoichiometry N,4 and 8
